Values of other authors, collected in publication PMC12524998.

Target: dysferlin (Homo sapiens) (UniProt O75923)
Experiment: SPR

UniProt O75923, sequence (O75923 whole entry): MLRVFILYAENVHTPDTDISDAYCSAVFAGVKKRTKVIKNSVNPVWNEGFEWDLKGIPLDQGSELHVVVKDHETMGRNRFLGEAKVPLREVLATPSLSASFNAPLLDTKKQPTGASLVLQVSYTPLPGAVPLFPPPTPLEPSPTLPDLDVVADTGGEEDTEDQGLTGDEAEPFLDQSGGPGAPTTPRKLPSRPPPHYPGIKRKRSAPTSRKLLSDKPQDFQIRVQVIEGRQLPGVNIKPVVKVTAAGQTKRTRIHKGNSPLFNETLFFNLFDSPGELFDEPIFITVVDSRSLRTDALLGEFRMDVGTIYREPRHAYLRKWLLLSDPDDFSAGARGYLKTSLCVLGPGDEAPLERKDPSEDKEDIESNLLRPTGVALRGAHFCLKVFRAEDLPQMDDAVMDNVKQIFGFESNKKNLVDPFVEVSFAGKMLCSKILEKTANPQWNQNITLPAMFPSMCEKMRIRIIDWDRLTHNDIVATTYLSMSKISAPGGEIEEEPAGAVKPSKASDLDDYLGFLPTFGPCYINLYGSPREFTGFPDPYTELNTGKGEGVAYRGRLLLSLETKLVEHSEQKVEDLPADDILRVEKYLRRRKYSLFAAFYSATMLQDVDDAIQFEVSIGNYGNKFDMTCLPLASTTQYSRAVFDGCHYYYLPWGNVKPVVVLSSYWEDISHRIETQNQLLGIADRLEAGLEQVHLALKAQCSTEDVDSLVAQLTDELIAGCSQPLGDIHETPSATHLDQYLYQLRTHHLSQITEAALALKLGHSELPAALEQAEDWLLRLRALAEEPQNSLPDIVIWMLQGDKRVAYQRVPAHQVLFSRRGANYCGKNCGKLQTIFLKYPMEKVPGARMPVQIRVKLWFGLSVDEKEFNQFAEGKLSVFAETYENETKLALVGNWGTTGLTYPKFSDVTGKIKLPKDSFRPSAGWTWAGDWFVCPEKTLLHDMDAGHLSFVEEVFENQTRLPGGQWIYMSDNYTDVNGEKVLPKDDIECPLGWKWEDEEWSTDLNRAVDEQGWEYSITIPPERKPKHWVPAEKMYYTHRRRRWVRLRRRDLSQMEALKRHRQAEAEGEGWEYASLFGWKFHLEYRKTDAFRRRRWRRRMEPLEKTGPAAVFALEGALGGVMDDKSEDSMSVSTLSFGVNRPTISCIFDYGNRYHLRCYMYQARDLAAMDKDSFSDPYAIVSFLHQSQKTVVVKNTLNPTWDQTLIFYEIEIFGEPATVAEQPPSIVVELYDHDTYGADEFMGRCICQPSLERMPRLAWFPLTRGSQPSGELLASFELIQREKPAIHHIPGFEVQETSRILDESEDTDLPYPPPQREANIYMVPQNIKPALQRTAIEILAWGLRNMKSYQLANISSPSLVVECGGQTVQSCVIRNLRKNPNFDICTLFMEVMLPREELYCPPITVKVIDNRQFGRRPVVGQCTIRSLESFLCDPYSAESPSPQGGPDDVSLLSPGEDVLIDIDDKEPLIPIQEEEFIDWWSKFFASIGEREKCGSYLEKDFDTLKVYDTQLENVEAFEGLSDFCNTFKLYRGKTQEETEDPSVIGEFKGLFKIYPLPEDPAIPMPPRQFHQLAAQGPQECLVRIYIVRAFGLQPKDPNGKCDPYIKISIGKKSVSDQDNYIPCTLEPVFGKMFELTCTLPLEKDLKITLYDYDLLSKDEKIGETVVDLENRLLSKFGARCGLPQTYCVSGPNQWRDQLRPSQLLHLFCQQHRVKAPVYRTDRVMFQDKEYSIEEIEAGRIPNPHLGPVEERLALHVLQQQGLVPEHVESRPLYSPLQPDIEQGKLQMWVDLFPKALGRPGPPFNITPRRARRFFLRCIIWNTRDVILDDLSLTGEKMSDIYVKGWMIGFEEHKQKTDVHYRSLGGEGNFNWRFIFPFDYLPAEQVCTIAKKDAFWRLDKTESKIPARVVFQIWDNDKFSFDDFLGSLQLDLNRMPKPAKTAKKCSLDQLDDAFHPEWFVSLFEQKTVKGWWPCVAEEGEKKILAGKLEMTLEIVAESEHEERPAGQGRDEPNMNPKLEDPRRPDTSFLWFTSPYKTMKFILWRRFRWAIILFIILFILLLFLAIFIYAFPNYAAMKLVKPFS

In the case of FKBP8 (from UniProt Q14318), the Kd is listed as 24 nM.
